Target: T1, Duck egg lysozyme (DEL) (Anas platyrhynchos, DEL-II double mutant, strain)
T1 construct: duck egg lysozyme, DEL-II isoform, D65N + N103D double mutant; source: P. pastoris, secreted, purified (ion exchange)
T1 chain: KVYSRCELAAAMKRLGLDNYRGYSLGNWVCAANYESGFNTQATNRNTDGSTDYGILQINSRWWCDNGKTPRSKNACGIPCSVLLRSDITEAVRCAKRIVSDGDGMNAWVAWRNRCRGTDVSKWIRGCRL
Test: BLI; BLItz; biotinylated Fab loaded on streptavidin biosensors, lysozyme proteins in solution at a range of molar concentrations; PBS (sensors rehydrated in PBS with 0.1% BSA); global fit, 1:1 Fab-lysozyme interaction; affinities printed as 1/KD
Conditions: both partners purified

Ka: 2.5e+07 M⁻¹
B1: Hy10 Fab (Fab, V domains shown)
VH: DVQLQESGPSLVKPSQTLSLTCSVTGDSITSDYWSWIRKFPGNRLEYMGYVSYSGSTYYNPSLKSRISITRDTSKNQYYLDLNSVTTEDTATYYCANWDGDYWGQGTLVTVSA
VL: DIVLTQSPATLSVTPGNSVSLSCRASQSIGNNLHWYQQKSHESPRLLIKYASQSISGIPSRFSGSGSGTDFTLSINSVETEDFGMYFCQQSNSWPYTFGGGTKLEIK
notes: Hy10 Fab heavy chain; Hy10 Fab light chain; Biotinylated only for BLI, not for the crystals; also called HyHEL10; WT founder antibody; source: Expi293, transient, purified (Talon, gel filtration)

Source: publication PMC7486785 (Proceedings of the National Academy of Sciences of the …, 2020)
